# Article PMC10945758 (Proceedings of the National Academy of Sciences of the …, 2024)
# Numbering of substitutions follows the chain as printed.
# B1: mouse TIFA dimer (natural protein, UniProt Q793I8 1-184, looked up)
# chain: MSTFEDADTEETVTCLQMTIYHPGQQSGIFKSIRFCSKEKFPSIEVVKFGRNSNMCQYTFQDKQVSRIQFVLQPFKQFNSSVLSFEIKNMSKKTSLMVDNQELGYLNKMDLPYKCMLRFGEYQFLLQKEDGESVESFETQFIMSSRPLLQENNWPTQNPIPEDGMYSSYFTHRSSPSEMDENEL
# B2: mouse TIFAB, full length, coexpressed with TIFA (natural protein, UniProt Q8JZM6 1-147, looked up)
# chain: MERPLTVLQVSLYHPTQGPVAFAHVPQQLQHDASRLLVGRGQNTHLQLQLPQLSRYHLSLEPYLEKGSSLLAFCLKVLTRKSCVWVNGLPLRYLEQVPLGTINRISFSGIQMLVRKEGGASLETFVCYFHLSPSPLIYRPKAQETDE
# B3: mouse TIFAB(1−139) (domain or fragment, UniProt Q8JZM6 1-139, looked up)
# chain: MERPLTVLQVSLYHPTQGPVAFAHVPQQLQHDASRLLVGRGQNTHLQLQLPQLSRYHLSLEPYLEKGSSLLAFCLKVLTRKSCVWVNGLPLRYLEQVPLGTINRISFSGIQMLVRKEGGASLETFVCYFHLSPSPLIYR
# What was measured:
# SEC = target: the molecule itself; test: SEC
# mouse TIFA(1−150) = target: T1, mouse TIFA(1−150) (mouse, UniProt Q793I8 1-150); test: SEC
# T1 sequence (looked up): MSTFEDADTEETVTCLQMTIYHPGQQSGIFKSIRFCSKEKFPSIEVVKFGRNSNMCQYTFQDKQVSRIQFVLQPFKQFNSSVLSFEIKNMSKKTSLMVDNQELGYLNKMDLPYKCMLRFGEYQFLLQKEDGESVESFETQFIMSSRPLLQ
# mouse TIFA(1−150/C36S) = target: T2, mouse TIFA(1−150/C36S) (mouse, UniProt Q793I8 1-150, C36S); test: crystal structure
# T2 sequence (looked up): T1 sequence (looked up) with C36S
binder,measurement,setting,value
B1,stoichiometry N,SEC,2
B2,binding result,mouse TIFA(1−150),binds
B3,binding result,mouse TIFA(1−150/C36S),binds
